Experimental findings from article PMC4403819 are described below.

The data set addresses T1, OmpR-His6 non-phosphorylated (Yersinia enterocolitica Ye9 (O:9)?) (UniProt P74982).
T1 sequence: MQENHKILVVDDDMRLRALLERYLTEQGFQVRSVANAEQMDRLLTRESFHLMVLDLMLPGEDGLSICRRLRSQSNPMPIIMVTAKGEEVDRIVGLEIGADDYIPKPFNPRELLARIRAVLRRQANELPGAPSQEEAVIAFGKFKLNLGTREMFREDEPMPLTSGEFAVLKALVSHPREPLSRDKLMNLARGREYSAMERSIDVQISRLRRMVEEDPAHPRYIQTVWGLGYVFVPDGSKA
Kind of data set: EMSA. The note with it: Binding buffer, pH and temperature not given ([…]. A general note: A gel shift assay detects complexes by their altered migration in electrophoresis.

On to “TGGAATTCATTGCAGCCAGAGGCATTACCCCTCTGTTTTTGCTCATAGATAAACCTCAAGTGTCCGATTTTTAATTTAATTCAATGGATCACAAGCTTTAAAACCCATTGCTGCGTAAATTATATGTGCGTGCTATGGTACATACATTCGTGAATGTATGTAAATCGCACCCCCTCGAAAAAACAACGCTATGGCACGAAAAACCAAACAGCAAGGTACCCA (double strand) [acrR promoter fragment p222]”, for which the binding entry is “binds more weakly”.
